Measured values reported in patent publication US20140113854A1 (NATIONAL RESEARCH COUNCIL OF CANADA, published 2014).
Positions count from the first letter of the chain named. Positions of bridges follow the written chain, without caps; N, C: chain ends. Non-standard residues stand in square brackets, D forms with d. Chains are numbered I, II in the order given. No end group written: not given here. *: point of attachment. Benzenesulfonyl(4-tBu) = CC(C)(C)c1ccc(S(=O)(=O)*)cc1; dPip = O=C(O)[C@H]1CCCCN1

How the values were obtained:
Human α-thrombin [1] = target: T1, Human α-thrombin (human, UniProt P00734 328-363; P00734 364-622); experiment: cell-based or functional assay
Human α-thrombin [2] = target: T1, Human α-thrombin; experiment: enzyme kinetics, thrombin-catalysed chromogenic substrate hydrolysis, 37 °C
rat-tail collagen type I [3] = target: T2, rat-tail collagen type I (rat, UniProt P02454 152-1207; P02466 86-1125); experiment: deuterium NMR of collagen gel formed with the peptide; called a semi-quantitative indication of peptide-collagen binding
T2 construct: Used in solution and as randomly deposited or partially aligned hydrogel; Human collagen gels were also prepared; also called collagen hydrogel; rat collagen
T2 sequence (P02454 152-1207 limits assumed, chain 1 of 2): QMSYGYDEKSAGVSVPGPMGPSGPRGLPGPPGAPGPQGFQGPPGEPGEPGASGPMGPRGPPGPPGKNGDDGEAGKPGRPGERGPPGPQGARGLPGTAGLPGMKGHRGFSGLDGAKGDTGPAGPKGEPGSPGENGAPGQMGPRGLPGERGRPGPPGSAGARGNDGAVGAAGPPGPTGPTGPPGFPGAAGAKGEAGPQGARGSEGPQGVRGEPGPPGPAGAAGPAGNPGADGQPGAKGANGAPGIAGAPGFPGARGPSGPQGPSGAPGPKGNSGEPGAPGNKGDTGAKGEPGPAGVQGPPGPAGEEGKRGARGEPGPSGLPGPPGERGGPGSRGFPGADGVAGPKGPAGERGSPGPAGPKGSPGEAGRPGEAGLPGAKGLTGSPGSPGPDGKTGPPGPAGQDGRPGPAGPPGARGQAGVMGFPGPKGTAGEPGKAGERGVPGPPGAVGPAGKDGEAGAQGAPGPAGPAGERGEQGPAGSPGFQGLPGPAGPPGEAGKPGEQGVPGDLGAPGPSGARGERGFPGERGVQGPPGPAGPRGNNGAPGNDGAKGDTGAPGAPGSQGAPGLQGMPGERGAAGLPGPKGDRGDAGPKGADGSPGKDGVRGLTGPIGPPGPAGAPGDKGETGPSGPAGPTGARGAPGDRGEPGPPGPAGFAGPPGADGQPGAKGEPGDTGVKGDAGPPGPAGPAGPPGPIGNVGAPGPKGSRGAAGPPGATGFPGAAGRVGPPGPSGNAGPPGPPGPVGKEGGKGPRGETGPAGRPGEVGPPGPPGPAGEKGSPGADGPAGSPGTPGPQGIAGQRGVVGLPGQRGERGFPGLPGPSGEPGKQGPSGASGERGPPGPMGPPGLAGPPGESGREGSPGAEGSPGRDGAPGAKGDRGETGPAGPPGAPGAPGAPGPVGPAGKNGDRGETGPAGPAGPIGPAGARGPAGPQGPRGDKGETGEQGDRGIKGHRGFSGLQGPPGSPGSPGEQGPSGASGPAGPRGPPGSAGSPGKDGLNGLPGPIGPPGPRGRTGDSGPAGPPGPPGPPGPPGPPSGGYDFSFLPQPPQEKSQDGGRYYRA
T2 sequence (P02466 86-1125 limits assumed, chain 2 of 2): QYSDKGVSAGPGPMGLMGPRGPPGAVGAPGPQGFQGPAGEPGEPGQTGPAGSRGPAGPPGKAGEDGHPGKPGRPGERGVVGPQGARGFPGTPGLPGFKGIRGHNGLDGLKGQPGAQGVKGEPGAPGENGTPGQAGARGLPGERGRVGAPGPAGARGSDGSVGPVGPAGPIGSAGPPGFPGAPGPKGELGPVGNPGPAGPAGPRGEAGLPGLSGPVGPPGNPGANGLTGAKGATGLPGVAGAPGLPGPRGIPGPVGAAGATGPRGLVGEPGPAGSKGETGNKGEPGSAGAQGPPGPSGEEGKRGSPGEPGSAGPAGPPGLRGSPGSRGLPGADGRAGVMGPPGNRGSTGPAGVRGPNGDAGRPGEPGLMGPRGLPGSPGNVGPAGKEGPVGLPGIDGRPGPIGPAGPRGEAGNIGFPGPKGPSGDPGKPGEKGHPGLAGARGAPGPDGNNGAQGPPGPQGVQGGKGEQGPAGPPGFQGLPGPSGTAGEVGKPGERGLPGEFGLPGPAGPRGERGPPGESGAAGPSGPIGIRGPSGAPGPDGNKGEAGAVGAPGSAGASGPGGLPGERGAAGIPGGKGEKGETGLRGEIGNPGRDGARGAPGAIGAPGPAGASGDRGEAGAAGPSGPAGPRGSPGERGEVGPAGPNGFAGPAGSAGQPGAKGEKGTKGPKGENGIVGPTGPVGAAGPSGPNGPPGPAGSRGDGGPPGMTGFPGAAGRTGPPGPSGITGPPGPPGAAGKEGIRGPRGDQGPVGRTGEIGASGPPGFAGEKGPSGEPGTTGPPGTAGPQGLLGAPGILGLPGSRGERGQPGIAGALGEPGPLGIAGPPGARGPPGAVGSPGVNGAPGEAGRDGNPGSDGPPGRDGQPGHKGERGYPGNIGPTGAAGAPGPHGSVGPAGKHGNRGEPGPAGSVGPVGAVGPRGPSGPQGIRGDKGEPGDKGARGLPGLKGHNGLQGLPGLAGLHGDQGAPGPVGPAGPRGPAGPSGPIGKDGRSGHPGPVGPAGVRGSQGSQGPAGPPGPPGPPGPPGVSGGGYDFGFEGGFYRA

rat-tail collagen type I [4] = target: T2, rat-tail collagen type I; experiment: proton NMR and deuterium coupling constant of collagen gel
Human α-thrombin [5] = target: T1, Human α-thrombin; experiment: inhibition of thrombin by monovalent active-site moiety; conditions not given at the table
Human α-thrombin [6] = target: T1, Human α-thrombin; experiment: derived from Ki and punfold (KD = Ki x popen), S-2366 kinetics, 37 °C
Excerpt: (§1) Human α-thrombin was purchased from Haemotologic Technologies, Inc., VT, USA.

Human α-thrombin [7] = target: T1, Human α-thrombin; experiment: cell-based or functional assay; remark: listed apart in the source
Human α-thrombin [8] = target: T1, Human α-thrombin; experiment: cell-based or functional assay; remark: listed apart in the source
Human α-thrombin [9] = target: T1, Human α-thrombin; experiment: cell-based or functional assay; remark: listed apart in the source
Human α-thrombin [10] = target: T1, Human α-thrombin; experiment: inhibition of human α-thrombin
Human α-thrombin [11] = target: T1, Human α-thrombin; experiment: inhibition of thrombin-catalysed hydrolysis of chromogenic substrate S-2366, 25 °C
Excerpt: as §1

Human α-thrombin [12] = target: T1, Human α-thrombin; experiment: inhibition of thrombin-catalysed hydrolysis of chromogenic substrate S-2366, 37 °C
Excerpt: as §1

rat-tail collagen type I [13] = target: T2, rat-tail collagen type I; experiment: NMR in collagen hydrogel
Human α-thrombin [14] = target: T1, Human α-thrombin; experiment: inhibition of thrombin-catalysed hydrolysis of chromogenic substrate S-2366, 37 °C; remark: listed apart in the source
Human α-thrombin [15] = target: T1, Human α-thrombin; experiment: thrombin inhibition, 37 °C
Human α-thrombin [16] = target: T1, Human α-thrombin; experiment: enzyme kinetics, thrombin-catalysed chromogenic substrate hydrolysis, 37 °C, 50 s window

With VRFTDGEGTPKPQSHDNGDFEEIPEEYLQ (ends and bridges not checked) [MH1] the “IC50 (assay not given)” value (Human α-thrombin [1]) was ~33 nM.

With IRFTDGSWTWEGNKWTWKGDFEEIPEEYLQ (also called P4269) [MH2-wZIP1] the Ki (Human α-thrombin [2]) was 18.4 nM.

GEWTYDDATKTFTWTE-NH2 (Isolated linker peptide) [trpzip5-NH2] was tested, and the “reduction of the deuterium coupling constant (collagen fibril alignment)” value (from here on “reduction … (collagen fibril alignment)”) (rat-tail collagen type I [3]) was < 0.5 Hz.

GEWTYDDATKTFTVTE-NH2 (Isolated linker peptide) [gb1-NH2]: no binding (rat-tail collagen type I [4]).

With IRFTDG (Monovalent active-site moiety) the Ki (Human α-thrombin [5]) was 7000 nM.

B1: BTI2 (peptide)
peptide: XRXGEWTYDDATKTFTVTEGDFEEIPEEYLQ
modifications: N-terminal Bbs (4-tert-butyl-benzenesulfonyl) on Arg; D-pipecolic acid (D-Pip) after Arg
notes: gb1 linker
Work on B1 yielded a Kd (Human α-thrombin [6]) of 2.8 nM.

B2: BTI4 (peptide)
peptide: B1 peptide with V17W
modifications: N-terminal Bbs (4-tert-butyl-benzenesulfonyl) on Arg; D-pipecolic acid (D-Pip) after Arg
Work on B2 yielded a Kd (Human α-thrombin [6]) of 2.8 nM.

For IRFTDGEWTWDDATKTWTWTEGDFEEIPEEYLQ (ends and bridges not checked; also: 15N-labelled) [MH2-wZIP4], the “IC50, fibrinogen clotting assay, 25 °C” value (Human α-thrombin [7]) was 245 nM, the “IC50, fibrinogen clotting assay, 37 °C” value (Human α-thrombin [7]) was 154 nM and the “IC50, fibrinogen clotting assay, 42 °C” value (Human α-thrombin [7]) was 148 nM. For the same binder, the “KI (Thrombin Inhibition); IC50 by the clotting assay, 37 °C” value (from here on “KI (Thrombin Inhibition); IC50”) (Human α-thrombin [8]) was 154 nM and the “IC50, T = 37° C.” value (Human α-thrombin [9]) was 154 nM.

B3: BRI-T109 (peptide)
peptide: PRFTDGEWTWDDATKTWTWTEGDFEEIPEEYLQ
notes: MH2-wZIP4 with the first residue Ile replaced by Pro; also called P4230
With B3 the Ki (Human α-thrombin [2]) was 1450 nM.

With IRFTDGEWTYDDATKTFTVTEGDFEEIPEEYLQ (ends and bridges not checked) [MH2-gb1] the “IC50, fibrinogen clotting assay, 25 °C” value (Human α-thrombin [7]) was 49 nM and the “IC50, fibrinogen clotting assay, 37 °C” value (Human α-thrombin [7]) was 86 nM.

For IRFTDGEWTYDDATKTFTWTEGDFEEIPEEYLQ [MH2-wZIP5], the “IC50, fibrinogen clotting assay, 25 °C” value (Human α-thrombin [7]) was 80 nM, the “IC50, fibrinogen clotting assay, 37 °C” value (Human α-thrombin [7]) was 107 nM and the “KI (Thrombin Inhibition); IC50” value (Human α-thrombin [8]) was 107 nM.

In the case of IRFTDGEWTWDDATKTWTVTEGDFEEIPEEYLQ [MH2-wZIP6], the “IC50, fibrinogen clotting assay, 25 °C” value (Human α-thrombin [7]) is reported as 47 nM, the “IC50, fibrinogen clotting assay, 37 °C” value (Human α-thrombin [7]) is reported as 53 nM and the “KI (Thrombin Inhibition); IC50” value (Human α-thrombin [8]) is reported as 53 nM.

B4: TWE1 (peptide)
peptide 1: {Benzenesulfonyl(4-tBu)}-R[dPip]GC
peptide 2: CGSGSGSGSGSGSGSGSGDFEEIPEEYLQ
modifications: disulfide I:4-II:1; ends not checked; also: uniformly 15N-labelled
notes: Analog of BTI1 in which the two parts are joined by a disulfide bond
In the case of B4, the Ki (Human α-thrombin [10]) is reported as 2.2 nM.

FQPRPRFTDGEWTWDDATKTWTWTEGDFEEIPEEYL (also called P4223) [BRI-T207] showed a Ki (Human α-thrombin [2]) of 404 nM.

With WDPRIRFTDGEWTWDDATKTWTWTEGDFEEIPEEYL [BRI-T219] the Ki (Human α-thrombin [2]) was 164 nM.

For GEWTWDDATKTWTWTE-NH2 (Isolated linker peptide) [trpzip4-NH2], the “reduction … (collagen fibril alignment)” value (rat-tail collagen type I [3]) was > 1 Hz.

In the case of GEWTWDDATKTWTVTE-NH2 (Isolated linker peptide) [trpzip6-NH2], the “reduction … (collagen fibril alignment)” value (rat-tail collagen type I [3]) is reported as < 0.5 Hz.

Work on IRFTDGSGSGSGSGSGSGDFEEIPEEYLQ (ends and bridges not checked, (GS)6 linker) [MH2-allGS] yielded a Ki (Human α-thrombin [2]) of 58 nM, a Ki (Human α-thrombin [11]) of 30 nM and a Ki (Human α-thrombin [12]) of 50 nM.

IRFTDGEGTGSGSGSGSGDFEEIPEEYLQ (ends and bridges not checked, GEGT(GS)4 linker; comparative control) [MH2-GS] was tested, and the binding result (rat-tail collagen type I [13]) was “no binding”, the Ki (Human α-thrombin [11]) was 27 nM and the Ki (Human α-thrombin [12]) was 59 nM. For the same binder, the Ki (Human α-thrombin [14]) was 60 nM.

[dF]PRPRFTDGEWTWDDATKTWTWTEGDFEEIPEEYL (ends and bridges not checked, also called P4229) [BRI-T208] was tested, and the “fold reduction of Ki as compared to BRI-T207” value (Human α-thrombin [15]) was ~13 fold, the “fold reduction of Ki as compared to MH2-wZIP4” value (Human α-thrombin [15]) was ~5 fold and the Ki (Human α-thrombin [2]) was 28 nM.

In the case of [dF]PRIRFTDGEWTWDDATKTWTWTEGDFEEIPEEYL (ends and bridges not checked, also called P4238) [BRI-T218], the Ki (Human α-thrombin [16]) is reported as 14 nM.

B5: MH2 (peptide)
peptide: IRFTDGEGTPNPESHNNGDFEEIPEEYLQ
modifications: ends and bridges not checked; also: uniformly 15N-labelled
notes: Linker HV2(42-53); Uniformly 15N-labelled for the NMR work; also called mini-hirudin 2
B5 was tested, and the “IC50 (assay not given)” value (Human α-thrombin [1]) was ~14 nM, the “IC50, T = 37° C.” value (Human α-thrombin [9]) was 14 nM and the Ki (Human α-thrombin [11]) was 34 nM. The Ki (Human α-thrombin [12]) was 67 nM.

For IRFTDGGSWTWEGNKWTWKGGDFEEIPEEYLQ (also called P4268) [MH2-wZIP1-2G], the Ki (Human α-thrombin [2]) was 16.6 nM.
